Literature values as cited in paper PMC12528386.

Biological target: BamA (Escherichia coli) (UniProt P0A940)

**Q.** For RcsF (from UniProt P69411), which Kd is on record?
**A.** 400 nM
